Here are results for 120 sequences from the supplement of paper PMC10126150.

± gives the standard deviation of the averaged measurements.

This data set has as its system ATP. The data set is described as follows: switch fluorescence ratio, 500 uM ATP over buffer (Cy3 cluster intensity, sum of 5 cycles each) (fold (ratio)); higher = stronger signal-on switching upon ATP binding; sequences stand for … in TCGTCGGCAGCGTCAGATGTGTATAAGAGACAGTTTTTTTTTTTTTTTTTTTTTTTTT…TC. To be noted: aptamer strand: ATP DNA aptamer (quencher-CACCTGGGGGAGTATTGCGGAGGAAGG + anchor), 100 nM annealed; ATP concentration: 500 uM. In a few lines:
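Five buffer/ATP imaging cycles were run on Cy3-labelled switching-strand clusters on a modified Illumina MiSeq flow-cell, with NaOH stripping and re-annealing between cycles. In each cycle, clusters annealed to 100 nM quencher-labelled ATP aptamer were imaged in selection buffer, then after 15 min with 500 uM ATP at 22 °C. Per cluster, the fluorescence ratio is summed target-cycle over summed buffer-cycle Cy3 intensity, averaged per switch-domain sequence. Only clusters within 100-1000 RFU were kept.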
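Note: ATP exposure 15 min at 22 °C before imaging.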

Turning to ACGCTGAGCA, the switch fluorescence ratio was 1.033 ± 0.008.
Under GCTGGGGGAT stands 1 ± 0.044; under TGTTTATATC, 0.9856 ± 0.0076.
On to AATCTGGGTG, for which the switch fluorescence ratio is 1.11 ± 0.034.
In the case of CTTGTAAAGG it was 0.9825 ± 0.00043; in that of CGAAAACTTT, 1.07 ± 0.064; in that of ATCGCGAGGA, 1.026 ± 0.0025.
Regarding GGAAAAGAGC, the switch fluorescence ratio is 0.991 ± 0.049.
Under GGCATCGCCG stands 0.954 ± 0.013; under ATCCAGT, 1.036 ± 0.0033.
In the case of GGCGGAGGGG it was 0.998 ± 0.024; in that of AAGACTTGTG, 0.981 ± 0.019; in that of TCTGGTTTGG, 1.03 ± 0.049.
In the case of CCGGTGTGAG it was 1.04 ± 0.021; in that of CGGGGTGTGT, 1.01 ± 0.023; in that of GGGGTAATGC, 1.34 ± 0.18.
Regarding TGACCCTTTT, the switch fluorescence ratio is 1 ± 0.077.
Take TATGTCTTTA: the switch fluorescence ratio was found to be 1 ± 0.017.
As for TGGGCTAAGC, the switch fluorescence ratio turned out to be 1.03 ± 0.028.
In the case of ATTGAGGCAA it was 1.22 ± 0.066; in that of TTCCGGGAAA, 0.968 ± 0.031.
As to TTGTTAGGAT, the switch fluorescence ratio was 1.07 ± 0.062.
Under CGGATGTGTT stands 0.951 ± 0.048; under CTGGGCTTAG, 0.982 ± 0.037.
In the case of ATTTTTATTT it was 1.07 ± 0.12; in that of CCACCTGGCG, 1.29 ± 0.017; in that of TTTGGTCTTT, 1 ± 0.02.
Under TCATGGAGTA stands 0.981 ± 0.08; under GATTGGCGAG, 0.998 ± 0.011; under CAGAGGAGTG, 0.9738 ± 0.0038.
For the sequence AGGGTCAGGG, the switch fluorescence ratio was 1.01 ± 0.04.
Under ATCGGGTAA stands 0.9965 ± 0.0029.
Under AGTCGGATTC stands 1.09 ± 0.076.
Under TAATGGGGCC stands 1.057 ± 0.005; under GTGGTGTTTT, 1 ± 0.015.
On to GACGGGGGCA, for which the switch fluorescence ratio was determined as 0.99948 ± 0.00073.
For the sequence ACTTTTGACT, the switch fluorescence ratio was 0.982 ± 0.022.
In the case of GGGCCATAAG it was 0.988 ± 0.052; in that of GCTACCTGGA, 1.19 ± 0.016.
In the case of TTCTGCAGGT it was 0.995 ± 0.011.
In the case of ATCCGGGACC it was 1.06 ± 0.02; in that of AAAATCTAGT, 1.014 ± 0.0081.
For TCCTGGGGTC, the switch fluorescence ratio was 1.05 ± 0.043.
Under ACGGCTCTGG stands 1.015 ± 0.0057; under GGGGAAAGTA, 1.03 ± 0.03.
Under CGTTTAAGTA stands 0.973 ± 0.019.
In the case of TCGTACGTGG it was 0.998 ± 0.016; in that of AATGAAAATC, 1.08 ± 0.15.
Regarding GGTTAAAACT, the switch fluorescence ratio came out at 0.987 ± 0.048.
Under TTTACTCGCA stands 1.3 ± 0.12; under GTTTAAGAAA, 0.998 ± 0.027.
Under AGGAGGCAGG stands 1.03 ± 0.011; under AATTTAGTTT, 0.978 ± 0.026.
In the case of AACGTTTTCT it was 0.991 ± 0.012.
With GGGAGGGGGG, the switch fluorescence ratio was determined as 0.994 ± 0.032.
Under CGGAAAATTA stands 1.015 ± 0.0067; under CGTCGTGATA, 1.2 ± 0.014.
Under GCAAGGTAGC stands 1.07 ± 0.011; under CCTTATTTTC, 0.9984 ± 0.0059.
Take TTTGTAAAGT: the switch fluorescence ratio worked out at 0.976 ± 0.019.
Under TAAGGGCTGC stands 1.036 ± 0.0084; under CGGGCATCGA, 0.995 ± 0.061.
Under TTTGCCGCGT stands 1.03 ± 0.012; under CGGGGGGGAG, 1.01 ± 0.067; under TTTCGGGCGG, 0.999 ± 0.038.
Under TTTAAATGCC stands 1.05 ± 0.05.
As to GAGGGGTATC, the switch fluorescence ratio came out at 0.96 ± 0.045.
On to TTTTTTCAGA, for which the switch fluorescence ratio worked out at 0.975 ± 0.029.
In the case of TTCATTATGG it was 1.004 ± 0.0049; in that of GCTCGTATTA, 1 ± 0.016; in that of GGGCTATGCT, 1 ± 0.037.
In the case of GGCACTGGGG it was 1.02 ± 0.02.
In the case of TTTGTGTAGT it was 0.986 ± 0.065; in that of GCTCGCCTGA, 0.995 ± 0.025; in that of GACACACAAA, 1.18 ± 0.11.
For AATCAATCTA, the switch fluorescence ratio was 1.01 ± 0.071.
Under AACGTTTAGG stands 1.015 ± 0.0099.
CGGTGGTCCA: the switch fluorescence ratio was determined as 0.997 ± 0.017.
Under ATAGGGGCAG stands 0.996 ± 0.03; under GATATTAAGC, 1.01 ± 0.026.
Regarding CTAAGGCGGG, the switch fluorescence ratio amounted to 1.013 ± 0.0072.
In the case of CAGTGATTTA it was 0.981 ± 0.019; in that of CTAATATTAT, 1.01 ± 0.027; in that of ACATTTGGGA, 0.964 ± 0.026.
Under GAAGAGCCTA stands 0.986 ± 0.044; under CGGGTGTCAC, 1.06 ± 0.024.
In the case of AAAGATTATT it was 1 ± 0.021.
Regarding GTTTTGGGGG, the switch fluorescence ratio was found to be 1.02 ± 0.025.
In the case of GATAGATTTA it was 0.9977 ± 0.0033; in that of TTTAGTGCCT, 1.04 ± 0.012; in that of GCTCGAACGA, 0.995 ± 0.013.
Under GTTCTATCAG stands 0.995 ± 0.09; under AATTGGGGGG, 0.998 ± 0.04; under AGGCGCGGGT, 0.998 ± 0.069.
Under TTGAGGAAGT stands 1.06 ± 0.058; under ATTCGAGCTG, 1.002 ± 0.0034; under GTCCGAGAAT, 0.986 ± 0.064.
As to TTGCTAATGC, the switch fluorescence ratio turned out to be 1.18 ± 0.23.
Consider CGGGGGAAGT, for which the switch fluorescence ratio is 0.981 ± 0.068.
Under ACGGAGCGGG stands 1.35 ± 0.25.
In the case of CGGTTCGGCG it was 0.987 ± 0.0099; in that of GCGTTAAGGA, 0.9835 ± 0.0056.
In the case of GAGTAAGATT it was 1.02 ± 0.025.
As to CTGATTCCTG, the switch fluorescence ratio is 1.01 ± 0.04.
With TACGGGTATA, the switch fluorescence ratio amounted to 1.01 ± 0.025.
In the case of GAAAAGGTTC it was 1.04 ± 0.044; in that of GTGGTGAAGG, 0.99 ± 0.039.
Consider TCCATAAAAA, for which the switch fluorescence ratio stood at 0.999 ± 0.022.
Consider GGGAAAAGGC, for which the switch fluorescence ratio came out at 1.02 ± 0.035.
Turning to AATTAAGAGA, the switch fluorescence ratio came out at 1.04 ± 0.017.
TGGGATATA: the switch fluorescence ratio is 1.01 ± 0.056.
Under GCCTTAGCCG stands 0.972 ± 0.019.
In the case of AGGTAGGCGT it was 0.97539 ± 0.00061.
In the case of CCCTTGGGGG it was 1.01 ± 0.014.
Turning to AAGTGTTTT, the switch fluorescence ratio came to 1.016 ± 0.005.
In the case of GGGGTTTCGT it was 1.01 ± 0.067.
Under ATCAAATCGA stands 1 ± 0.043; under TGGTTTCA, 1.02 ± 0.041; under CGTGCGGGTG, 1.03 ± 0.006.
In the case of AGACATTCCT it was 1.3 ± 0.34.
